{"source": "paper PMC4122339", "about": "“Carbonic Anhydrase Generates CO2 and H^+ That Drive Spider Silk Formation Via Opposite Effects on the Terminal Domains” (PLoS Biology, 2014)", "proteins": {"B1": {"name": "Araneus ventricosus minor ampullate spidroin (MiSp) C-terminal domain, truncated construct (residues 31-150 of the 150-residue C-terminal part) (domain or fragment)", "chain": "VTSGGYGYGTSAAAGAGVAAGSYAGAVNRLSSAEAASRVSSNIAAIASGGASALPSVISNIYSGVVASGVSSNEALIQALLELLSALVHVLSSASIGNVSSVGVDSTLNVVQDSVGQYVG", "modifications": "uniformly 13C/15N-labelled (a mixed sample of 50% 13C/15N-labelled and 50% unlabelled protein was used for the intermolecular NOEs)", "notes": "C-terminal domain of minor ampullate spidroin (MiSp), Araneus ventricosus; residues 31-150 of the printed 150-residue construct; PDB 2MFZ would settle this; also called A. ventricosus MiSp CT; source: E. coli BL21 (DE3), minimal medium, purified (Ni-NTA, thrombin cleavage, Ni-NTA); not shown: His tag-Thioredoxin-His tag, N-terminal, cleaved"}}, "target": "the molecule itself", "assay": "NMR structure; solution NMR at 298 K; 1 mM protein in 20 mM sodium phosphate pH 6.8, 20 mM NaCl; intermolecular NOEs from a 13C/15N-filtered NOESY on a 50% labelled / 50% unlabelled sample, used as distance restraints with an upper limit of 5 Å"}
{"protein": "B1", "values": [{"measurement": "binding result", "result": "binds"}]}
